Test: soluble on expression in E. coli; label from the status in PepcDB or PDB records

Sequence	soluble on expression in E. coli
SLSTLKILLCTDNHLGYKENNSIQKKDSFNSFEEILFIAKKLNVDMILNSGDLFHKNKVSEYTLFKSMYIIRKAGKKLIPFYTIHGNHDYPYSYEYISPLDILNISNLINYIGKNNLNNIVVKPILLNKYKSKISIYAVGWMKDERLYRSFENNEVKFILPSDYKNRINILVLHQNRYIRNAYGNNTKNFIKESFIPKFIDLVIWGHEHFSKPYLEESILNSFYNIQLGSSVRTSICPNEYGDKFIGLLEIKNQRFRFLKINLETVRPFEMKDIKLADYELNFKSESVLKEFLHEQTHAILEKIKNNFSHE	not soluble
MPRSLANAPIMILNGPNLNLLGQRQPEIYGSDTLADVEALCVKAAAAHGGTVDFRQSNHEGELVDWIHEARLNHCGIVINPAAYSHTSVAILDALNTCDGLPVVEVHISNIHQREPFRHHSYVSQRADGVVAGCGVQGYVFGVERIAALAGAGSARA	soluble
MARYSLHAGHNSIVQGANYGNRKEHIMDRQVKDAVVAKLRALGHTVYDDTDEVGTTQAQNLNNIVSKTNSHDVDLVVSFHLNSYDTRANGVEVLYYDQQALSAKIAAQLSKDIGWSNRGAKERKDLYVLSNTKAPAILIELGFIDNEADMAKWNPDKIANSIVYALTGQSGGTTPPSKQNIIQSGAFSPYETPDVMGALTSLKMTANFILQSDGLTYFISEPTSDAQLKGMTDYLDRRGWWYEVK	not soluble
MGSDKIHHHHHHMAAGSTLWTRIPAMQQQNHPPYTLAIAQGESISLDPSHFTPEHWQALAAVTGTSKGRYTTWFVRHPEANQDWVLRHYWRGGLMEKFSKDRYLYTGMANTRAIAELALLEKLHAEGFPVPRPVGARVRRYALWYSADILIERMPGCRDLLAWLEQGPLDEAEWKALGVCIARFHHRGVYHADLNAKNILKGPQGFALIDFDRGEIRNPANSWQQANLSRLRRSFDKEKGKLPSLAFDESCWQWLLEGYAAA	not soluble
KDEIGVIGIDDAPFNKFDKEALIVGTYMRGNKLVDEISFKKIEKDGFDSTEKILKIVKDKHFTKINAIFLDGVTFGGFNIADIVKIYNETKIPVIAVMEKEPDLLKMKSALKKYFFDFPEKIEMLESFPKPEPFENIFIQCIGISFEDACKLIKKTRLRSKIPECLRISHLVGRGFLNME	not soluble
MLVRKVCQNFFQNALAPFHKYRQSALMDATVALINGASLTLTSIGRFLPGQAQVKNKIKRVDRLLGNESLHRDIPLIFNNIIAMLTRKLSLCVVAVDWSGYHSHEYHILRASLICDGRSIPLLSQIVPSAEQQSEQIHKTFLNALARAVNPDARVILEHHHHHH	not soluble
NDTVLIAGAGHAGFQVAVSLRQAKYPGRIALINDEKHLPYQRPPLSKAYLKSGGDPNSLMFRPEKFFQDQAIELISDRMVSIDREGRKLLLASGTAIEYGHLVLATGARNRMLDVPNASLPDVLYLRTLDESEVLRQRMPDKKHVVVIGAGFIGLEFAATARAKGLEVDVVELAPRVMARVVTPEISSYFHDRHSGAGIRMHYGVRATEIAAEGDRVTGVVLSDGNTLPCDLVVVGVGVIPNVEIAAAAGLPTAAGIIVDQQLLTSDPHISAIGDCALFESVRFGETMRVESVQNATDQARCVAARLTGDAKPYDGYPWFWSDQGDDKLQIVGLTAGFDQVVIRGSVAERSFSAFCYKAGKLIGIESVNRAADHVFGRKILPLDKSVTPEQAADLSFDLKKAAA	soluble
MDELLNRLRQTWHSTIPVSEFMQIAPLSFTDGELSVSAPLAPNINLHHTMFAGSIYTIMTLTGWGMVWLQQQLLNVDGDIVLADAHIRYLAPVTSAPEVKVRWPDTNLSPLQRGRKAKVKLEVQLFCDGKLCAQFDGLYVSVPKMLEHHHHHH	soluble
MSLDVFVLDTSVFTNPEIYRTFEEDQRGAMETFIHLALNSRAEFYMPTSVYTEMRKIMDVGELWAEFEMVVKIRSPRRFQLTVPADFLYEFIEELRYRINKGLRIAEEHTREASGCEDVGKLIARLREKYREALRQGILDSKEDVDVLLLAYELDGVLVSADEGLRTWADKIGIKLIDPKNFKNILESLVRHRFEGHHHHHH	soluble
MSPPDLEDEPFMENQDVAGENDLFVLDGRQDPPNLPQNHLEEVVGEIVENLERWHFAEILADGAEIHEDIIEDVGGDEVEEEEVDIDWVSPLSKEYSKPFSKS	not soluble
CGGCGEDVVGDGAGVVALDRVFHVGCFVCSTCRAQLRGQHFYAVERRAYCEGCYVATLE	soluble
MGSDKIHHHHHHAQIADRVYKTDYHIDPEKARELSVELDNISFFKDNEYTGKFTKGYSLPGLWVQGKAVYYPLRNIKLEAGVHMLIYHGANKYPSMAYQDIAYWKGDQYQKGVHVLPYFRAQMALSDHVNIVLGNIYGASNHNLIEPLYNPELNLTCDPEAGLQLLYDSKAFDLDVWVNWQSFIFREDVHQEAFTVGISSRLKYNDPASRFHFYTPVQGLVQHRGGEIDTIFNNSVQTLMNGAIGVGGVWNTGHRIFKNLNVELDATGYYQQAGEIWPFDSGYGLYARASADIYDFRVKTSYWTCEDFISMFGSPFFGAASMIDEGVTFDRPQMIYLGVEYSRQLAKGFSIGVDVDVFHHLSGDMNDADGVKQPMGSATSFTAGVYMRINPSFLIKKF	not soluble
MTDLPLTGRARPDRRPHTLAEWRAEGGYEAVDRARSMAPAEIIDMVEAAHLNGRGGAGFPAGRKWRFMPERGTSPGEGPSYLIVNGDEMEPGAFKDRFLLEALPHQVIEGAIITARATHADEAIVLIRDEYRPGIAAVERAIHEARDAGLLGDLAIRVHPSAGRYIVGEETALITALEGHRAVPRKRPPFPAQSGLWGRPTTVNNVETISLVPHILSLGPQRFRALSRTEEGGTKLYGVSGRVKRPGLFEAPMGTTARELIERAGGVSGDGQLRAFQPGGGASGFFGPDRLDLPLDFGHVAKAGSMFGTGMLIVLDGTACPVGFLARHMRFYARESCGWCTPCREGLPLVAKILDRFAAGQGRRADLELLQMTAAEAAPRGRSFCDLMGGAMAPLASGLSMFAAEFEARLAEGERALEHHHHHH	not soluble
MFQNHKIMDLEVRTRLDDNRNLREVRIIPLGSGYNVGIVYSKEISDISDLNPKRILGIDMGVRNIVTIGNNMSEEGIAVKGGVLRSINQYFNKELSKLKSVSDRQNDGKGNTRRIKNLYAVRNGKIKDIMHKLSRAIIRYALSMNVDTIVIGHSQGWKHTPDMGKKNNQNFVQIPFNILIEQIRYKGQEAGINVIVLDESYTSVCSFIDNESIEKHETYMGKRIKRGIFRSHKGILIHADLNALYNTIKKAISEAFADGIEGIGLYPRSLSIREMITSKGLRLEHHHHHH	soluble
MGHHHHHHSHMKALSPVRGCYEAVCCLSERSLAIARGRGKGPAAEEPLSLLDDMNHCYSRLRELVPGVPRGTQLSQVEILQRVIDYILDLQVVLAEPAPGPPDGPHLPIQTAELAPELVISNDKRSFCH	not soluble
GPMRRERGRQGDSSSCERQVDRVNLKPCEQHIMQRIMGEQEQYDSYDIRSTRSSDQQQRCCDELNEMENTQGCMCEALQQIMENQCDRLQDRQMVQQFKRELMSLPQQCNFRAPQRCDLDVSGGRCS	soluble
MTTKHSRTPGRPRQFDPEQAIETAQHLFHSRGYDAVSVADLTKAFGINPPSFYAAFGSKLGLYTRVLKRYRMTDAIPLGALLRHDRPTAKCLIDVLMEAARRYAADPDATGCLVLEGAHCNDKPAREAACEFYIAAENLIRTYVAMRYPQEADRTTDFMGTLMAGLSAKARAGYGLERLQESVLLAGDVLERLLPD	not soluble
MSTHEKLLTADNPVLHQRAKAMRQEMSEAEAKLWQHLRAGRLNGYKFRRQQPMGNYIVDFMCVTPKLIVEADGGQHAEQAVYDHARTAYLNSLGFTVLRFWNHEILQQTNDVLAEILRVLQELEKQYAQ	not soluble
MSLIDILVVDDDVAVCAALRLVLKRAGYNPVIANSPDEALSIMRNPDGGCKPAVILMDMNFSLSTSGREGLELLEKMQIFTSCPVILMTAWASIPLAVEGMRLGAFDFIGKPWDNDRLLRTIDTALHLAAPSAVANPSEQSDRDTARQPKATVQENDPCAHIIGRSDAICKIKERIRRIAPTHASVLITGESGTGKELIAEALHRGSKRASAPFVKVNLGGIPESLFESELFGHKKGAFTNAFSDRKGRFELADGGTIFLDEIGELPVGNQVKLLRVLQEQTFEPLGESVSHRVDIRVVSATNASLERMVAEGRFREDLYYRINLIHLHLPPLRERQEDIQLLVEAFSEAFAQSNGLPHAVWSAEAMRRICAMPLPGNVRELKNVVERTLLLSGSREISARDVADEGHHHHHH	soluble

Source: the DeepSol protein solubility set
